Values quoted from earlier work as cited in patent US20040071657A1, “Chemoattractant recruitment of dendritic cells for enhancement of immunization” (priority 2003, published 2004).

Test system: circulating DC
Conditions: in vivo administration to mice

B1: Flt3-L: Flt3 ligand, a growth factor polypeptide that promotes dendritic cell growth (protein, UniProt P49771 27-235, looked up)
Fms-related tyrosine kinase 3 …: TQDCSFQHSPISSDFAVKIRELSDYLLQDYPVTVASNLQDEELCGGLWRLVLAQRWMERLKTVAGSKMQGLLERVNTEIHFVTKCAFQPPPSCLRFVQTNISRLLQETSEQLVALKPWITRQNFSRCLELQCQPDSSTLPPPWSPRPLEATAPTAPQPPLLLLLLLPVGLLLLAAAWCLHWQRTRRRTPRPGEQVPPVPSPQDLLLVEH
Question: With B1 as the molecule, how does the “increase in the number of circulating DC” value read?
Answer: The value was 10-30 fold.
